Laboratory results as given in patent US20240059799A1 (Pfizer, published 2024).
Positions count from the first letter of the chain named.

Key:
Assay in all cases: SPR, Biacore 8K+, 37 C; antibody captured by anti-human Fc, cytokine injected
[1] = target: T1, mouse IL-12 (mouse, UniProt P43432 23-335; P43431 23-215)
T1 sequence 1: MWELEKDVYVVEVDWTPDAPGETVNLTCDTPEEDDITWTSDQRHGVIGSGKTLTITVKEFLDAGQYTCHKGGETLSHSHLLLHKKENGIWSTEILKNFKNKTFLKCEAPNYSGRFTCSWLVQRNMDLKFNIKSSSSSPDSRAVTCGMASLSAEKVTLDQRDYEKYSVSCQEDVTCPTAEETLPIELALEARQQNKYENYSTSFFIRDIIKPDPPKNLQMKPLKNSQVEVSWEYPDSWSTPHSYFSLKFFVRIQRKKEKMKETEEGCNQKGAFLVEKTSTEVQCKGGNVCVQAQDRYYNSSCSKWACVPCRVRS
T1 sequence 2: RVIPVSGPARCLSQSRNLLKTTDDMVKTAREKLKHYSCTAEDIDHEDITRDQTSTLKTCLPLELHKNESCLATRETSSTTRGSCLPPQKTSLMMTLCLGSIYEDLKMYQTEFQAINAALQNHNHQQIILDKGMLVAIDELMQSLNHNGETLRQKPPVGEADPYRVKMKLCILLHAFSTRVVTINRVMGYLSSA
Method: (§1) In order to determine binding to TL1A, kinetic assays were conducted at 37° C. using a collection rate of 10 Hz on a Biacore™ T200 instrument (GE Healthcare). […] For the analysis of the p40 binding arm, kinetic assays were conducted at 37° C. using a collection rate of 10 Hz on a Biacore™ 8 K+ instrument (GE Healthcare).

[2] = target: T2, human IL-23 (human, UniProt P29460 23-328; Q9NPF7 20-189)
T2 construct: also called recombinant human IL-23 (p40/p19)
T2 sequence 1: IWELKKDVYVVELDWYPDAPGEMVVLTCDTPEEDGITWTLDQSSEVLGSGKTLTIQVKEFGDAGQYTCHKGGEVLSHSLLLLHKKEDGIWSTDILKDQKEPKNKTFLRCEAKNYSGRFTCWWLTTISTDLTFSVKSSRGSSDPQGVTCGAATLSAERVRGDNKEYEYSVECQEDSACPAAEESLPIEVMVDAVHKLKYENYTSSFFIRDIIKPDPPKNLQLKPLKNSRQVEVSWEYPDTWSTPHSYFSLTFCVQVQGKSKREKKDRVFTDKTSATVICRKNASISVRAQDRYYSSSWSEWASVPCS
T2 sequence 2: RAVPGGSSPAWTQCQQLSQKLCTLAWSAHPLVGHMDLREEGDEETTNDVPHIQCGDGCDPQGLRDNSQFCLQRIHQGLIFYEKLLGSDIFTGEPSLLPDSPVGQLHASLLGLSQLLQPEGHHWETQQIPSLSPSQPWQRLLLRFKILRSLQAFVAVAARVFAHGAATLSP
Method: as §1

[3] = target: T3, cynomolgus monkey IL-23 (cynomolgus monkey, limits assumed)
T3 construct: also called cyno IL-23
T3 chain 1: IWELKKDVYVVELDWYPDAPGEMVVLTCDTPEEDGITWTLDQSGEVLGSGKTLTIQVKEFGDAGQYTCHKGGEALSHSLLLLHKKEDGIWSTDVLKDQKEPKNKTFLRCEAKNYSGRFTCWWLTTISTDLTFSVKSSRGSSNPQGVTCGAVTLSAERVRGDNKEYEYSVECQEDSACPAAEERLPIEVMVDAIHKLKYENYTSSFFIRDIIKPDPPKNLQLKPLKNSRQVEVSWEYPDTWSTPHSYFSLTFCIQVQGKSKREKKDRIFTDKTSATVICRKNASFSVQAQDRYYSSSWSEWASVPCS
T3 chain 2: T2 sequence 2 with T12A, H75R, L131P
Method: as §1

- binding result [1]: no binding (tested: 200 nM)
- Kd [2]: 0.104 nM
- koff [2]: 0.000294 s⁻¹
- kon [2]: 2.82e+06 M⁻¹ s⁻¹
- Kd [3]: 0.281 nM
- koff [3]: 0.000542 s⁻¹
- kon [3]: 1.93e+06 M⁻¹ s⁻¹
B1: p40TL1A-0033 bispecific antibody (bispecific antibody, human IgG1, kappa)
heavy: EVQLVQSGAEVKKPGESLKISCKGSGYSFTTYWLGWVRQMPGKGLDWIGIMSPVDSDIRYSPSFQGQVTMSVDKSITTAYLQWNSLKASDTAMYYCARRRPGQGYFDFWGQGTLVTVSSASTKGPSVFPLAPSSKSTSGGTAALGCLVKDYFPEPVTVSWNSGALTSGVHTFPAVLQSSGLYSLSSVVTVPSSSLGTQTYICNVNHKPSNTKVDKKVEPKSCDKTHTCPPCPAPEAAGAPSVFLFPPKPKDTLMISRTPEVTCVVVDVSHEDPEVKFNWYVDGVEVHNAKTKPREEQYNSTYRVVSVLTVLHQDWLNGKEYKCKVSNKALPAPIEKTISKAKGQPREPQVCTLPPSREEMTKNQVSLWCLVKGFYPSDIAVEWESNGQPENNYKTTPPVLDSDGSFFLYSKLTVDKSRWQQGNVFSCSVLHEALHSHYTQKSLSLSPGK
light: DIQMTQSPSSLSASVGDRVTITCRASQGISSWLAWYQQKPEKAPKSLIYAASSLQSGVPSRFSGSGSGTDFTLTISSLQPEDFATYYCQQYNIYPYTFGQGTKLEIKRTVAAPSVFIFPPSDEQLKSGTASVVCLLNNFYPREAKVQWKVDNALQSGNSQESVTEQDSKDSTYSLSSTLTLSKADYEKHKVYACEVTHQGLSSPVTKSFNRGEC
chain 1: not shown
chain 2: QVQLVQSGAEVKKPGASVKVSCKASGYDYTYYGISWVRQAPGQGLEWMGWISTYNTGTHYAPSLQGRVTMTTDTSTSTAYMELRSLRSDDTAVYYCARESYYGSGAFRGGMDVWGQGTTVTVSSASTKGPSVFPLAPSSKSTSGGTAALGCLVKDYFPEPVTVSWNSGALTSGVHTFPAVLQSSGLYSLSSVVTVPSSSLGTQTYICNVNHKPSNTKVDKKVEPKSC
notes: Single cell KiH, modified Fd format; IgG1 effector-function-minimized Fc with LS mutations
